Experimental data published in PMC5493754, “Myosin 7 and its adaptors link cadherins to actin” (Nature Communications, 2017).

Columns and labels:
Test in all cases: MST; YFP-fused partner held together with a third protein (saturating concentrations; competition experiments), non-fluorescent protein titrated
Conditions in all cases: both partners purified
[1] = biological target: T1, SANS_(CEN-PBM) with YFP-FL-harmonin-ΔCter ( | human, UniProt Q495M9 300-461; Q9Y6N9-1 1-542)
T1 construct: SANS (USH1G), residues 300-461 of UniProt Q495M9; as m41; Harmonin-a1 (USH1C), human, residues 1-542 of UniProt Q9Y6N9-1; as m28; also called SANS_(CEN-PBM)+^YFPFL ΔCter; source: purified E. coli proteins mixed
T1 sequence (looked up) 1: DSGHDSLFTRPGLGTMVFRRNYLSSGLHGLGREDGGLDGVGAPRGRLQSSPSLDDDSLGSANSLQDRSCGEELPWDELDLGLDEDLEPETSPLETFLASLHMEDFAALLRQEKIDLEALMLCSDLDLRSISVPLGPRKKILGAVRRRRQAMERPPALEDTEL
T1 sequence (looked up) 2: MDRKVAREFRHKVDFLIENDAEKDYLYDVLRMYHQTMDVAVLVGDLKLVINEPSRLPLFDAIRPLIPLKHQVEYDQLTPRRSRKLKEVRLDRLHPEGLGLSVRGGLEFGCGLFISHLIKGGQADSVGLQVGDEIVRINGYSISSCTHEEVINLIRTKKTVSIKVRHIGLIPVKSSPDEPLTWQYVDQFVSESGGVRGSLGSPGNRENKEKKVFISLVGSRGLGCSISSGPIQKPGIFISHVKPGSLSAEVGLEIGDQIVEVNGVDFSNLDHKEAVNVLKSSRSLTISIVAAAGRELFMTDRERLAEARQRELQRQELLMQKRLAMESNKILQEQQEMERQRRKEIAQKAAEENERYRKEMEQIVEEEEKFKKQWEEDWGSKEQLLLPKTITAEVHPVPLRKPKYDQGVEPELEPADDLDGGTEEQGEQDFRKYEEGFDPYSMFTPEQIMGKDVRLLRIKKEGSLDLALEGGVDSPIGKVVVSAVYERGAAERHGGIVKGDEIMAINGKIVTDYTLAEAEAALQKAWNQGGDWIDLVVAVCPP

[2] = biological target: T2, SANS_(CEN-PBM) with YFP-harmonin NPDZ1.PDZ2 ( | human, UniProt Q495M9 300-461; Q9Y6N9-1 1-301)
T2 construct: SANS (USH1G), residues 300-461 of UniProt Q495M9; as m41; Harmonin-a1 (USH1C), human, residues 1-301 of UniProt Q9Y6N9-1; as m31; also called SANS_(CEN-PBM)+^YFPNPDZ1.PDZ2; source: purified E. coli proteins mixed
T2 sequence (looked up) 1: T1 sequence (looked up) 1
T2 sequence (looked up) 2: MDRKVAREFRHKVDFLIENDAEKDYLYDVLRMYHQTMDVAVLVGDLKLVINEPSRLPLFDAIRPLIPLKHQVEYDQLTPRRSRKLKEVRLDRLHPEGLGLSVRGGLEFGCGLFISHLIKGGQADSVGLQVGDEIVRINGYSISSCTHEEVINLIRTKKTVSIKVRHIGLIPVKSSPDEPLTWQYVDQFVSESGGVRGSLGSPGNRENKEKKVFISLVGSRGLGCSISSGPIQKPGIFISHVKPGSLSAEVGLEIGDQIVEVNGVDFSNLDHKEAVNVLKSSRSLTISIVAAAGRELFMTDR

[3] = biological target: T3, ANKS4B_(CEN-PBM) with YFP-harmonin NPDZ1.PDZ2 (human, UniProt Q8N8V4 259-417; Q9Y6N9-1 1-301)
T3 construct: ANKS4B, human, residues 259-417 of UniProt Q8N8V4; as m43; Harmonin-a1 (USH1C), human, residues 1-301 of UniProt Q9Y6N9-1; as m31; also called ANKS4b+^YFPNPDZ1.PDZ2; ^YFPNPDZ1.PDZ2+ANKS4B_(CEN-PBM); source: purified E. coli proteins mixed
T3 sequence (looked up) 1: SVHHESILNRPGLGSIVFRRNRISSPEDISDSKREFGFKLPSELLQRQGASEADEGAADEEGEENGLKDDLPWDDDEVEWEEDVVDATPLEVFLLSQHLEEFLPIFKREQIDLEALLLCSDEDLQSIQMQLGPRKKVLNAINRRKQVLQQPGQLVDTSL
T3 sequence (looked up) 2: T2 sequence (looked up) 2

[4] = biological target: T4, YFP-ANKS4B_(CEN-PBM) with harmonin NPDZ1.PDZ2 (human, UniProt Q8N8V4 259-417; Q9Y6N9-1 1-301)
T4 construct: ANKS4B, human, residues 259-417 of UniProt Q8N8V4; as m42; Harmonin-a1 (USH1C), human, residues 1-301 of UniProt Q9Y6N9-1; as m30; also called ^YFPANKS4b+NPDZ1.PDZ2; source: purified E. coli proteins mixed; not shown: YFP, N-terminal, kept
T4 sequence (looked up) 1: T3 sequence (looked up) 1
T4 sequence (looked up) 2: T2 sequence (looked up) 2

Measured: Kd

B1: Harmonin-a PDZ3c (non-fluorescent, as used in MST) (domain or fragment, human, UniProt Q9Y6N9-1 428-552, looked up)
chain: QDFRKYEEGFDPYSMFTPEQIMGKDVRLLRIKKEGSLDLALEGGVDSPIGKVVVSAVYERGAAERHGGIVKGDEIMAINGKIVTDYTLAEAEAALQKAWNQGGDWIDLVVAVCPPKEYDDELTFF
notes: Harmonin-a1 (USH1C), human, PDZ3 plus C-terminal peptide, residues 428-552 of UniProt Q9Y6N9-1; The methods say only that samples for ITC or crystallisation were digested with TEV protease; also called PDZ3c (isoA); source: E. coli BL21 (DE3) Rosetta, purified (Glutathione Sepharose 4B, size-exclusion chromatography)
> 100 µM: all assays above
